Measurements published in paper PMC10149931, “Wiskott-Aldrich syndrome protein interacts and inhibits diacylglycerol kinase alpha promoting IL-2 induction” (Frontiers in Immunology, 2023).

Target: myc-DGKα (UniProt P23743 1-735)
Experiment: cell-based or functional assay

Sequence of myc-DGKα (P23743 whole entry): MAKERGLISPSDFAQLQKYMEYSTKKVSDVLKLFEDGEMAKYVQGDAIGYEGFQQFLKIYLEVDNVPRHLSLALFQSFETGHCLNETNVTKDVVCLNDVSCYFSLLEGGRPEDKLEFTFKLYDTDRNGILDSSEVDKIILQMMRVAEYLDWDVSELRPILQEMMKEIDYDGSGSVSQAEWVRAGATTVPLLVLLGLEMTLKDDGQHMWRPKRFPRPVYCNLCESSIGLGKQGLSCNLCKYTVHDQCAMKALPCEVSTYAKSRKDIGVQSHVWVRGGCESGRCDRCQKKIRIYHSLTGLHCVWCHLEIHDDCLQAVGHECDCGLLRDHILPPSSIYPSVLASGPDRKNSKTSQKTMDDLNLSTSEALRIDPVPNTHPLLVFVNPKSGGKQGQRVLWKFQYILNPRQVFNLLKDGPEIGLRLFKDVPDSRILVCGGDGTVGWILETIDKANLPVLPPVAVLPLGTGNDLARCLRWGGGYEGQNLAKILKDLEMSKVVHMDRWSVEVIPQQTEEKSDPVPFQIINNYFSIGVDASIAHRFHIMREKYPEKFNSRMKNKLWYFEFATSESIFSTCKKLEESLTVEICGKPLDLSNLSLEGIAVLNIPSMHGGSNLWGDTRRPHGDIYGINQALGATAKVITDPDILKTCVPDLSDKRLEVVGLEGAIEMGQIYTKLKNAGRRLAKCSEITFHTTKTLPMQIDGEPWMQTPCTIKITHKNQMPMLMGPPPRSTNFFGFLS

decrease in DGK activity of total homogenates of 293T cells co-transfected with myc-DGKα and FLAG-WASp, against myc-DGKα with GFP control vector: ~50%
B1: FLAG-WASp (natural protein, UniProt P42768 1-502, looked up)
chain: MSGGPMGGRPGGRGAPAVQQNIPSTLLQDHENQRLFEMLGRKCLTLATAVVQLYLALPPGAEHWTKEHCGAVCFVKDNPQKSYFIRLYGLQAGRLLWEQELYSQLVYSTPTPFFHTFAGDDCQAGLNFADEDEAQAFRALVQEKIQKRNQRQSGDRRQLPPPPTPANEERRGGLPPLPLHPGGDQGGPPVGPLSLGLATVDIQNPDITSSRYRGLPAPGPSPADKKRSGKKKISKADIGAPSGFKHVSHVGWDPQNGFDVNNLDPDLRSLFSRAGISEAQLTDAETSKLIYDFIEDQGGLEAVRQEMRRQEPLPPPPPPSRGGNQLPRPPIVGGNKGRSGPLPPVPLGIAPPPPTPRGPPPPGRGGPPPPPPPATGRSGPLPPPPPGAGGPPMPPPPPPPPPPPSSGNGPAPPPLPPALVPAGGLAPGGGRGALLDQIRQGIQLNKTPGAPESSALQPPPQSSEGLVGALMHVMQKRSRAIHSSDEGEDQAGDEDEDDEWDD
